Usually Kd stands for the equilibrium constant for the complex coming apart. Read a high Kd as lower affinity. Usually koff stands for a measure of how fast the partners let go of each other. What is called kon is a measure of how fast the partners come together. Read a high kon as fast association. A word on the IC50: it is the concentration at which inhibition is half-maximal.

Changes are numbered by the printed parent chain. Values joined by “and” are separate entries in the source; they are usually repeats but may differ in a detail not shown here. Identical values can stand only once.

T1: Glycosylated human CXCL13 (MEL cell derived) (human, UniProt O43927 23-104, glycosylated (site not stated))
T1 sequence: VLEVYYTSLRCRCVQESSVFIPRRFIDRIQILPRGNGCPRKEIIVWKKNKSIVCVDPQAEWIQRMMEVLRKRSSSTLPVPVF

T2: CXCL8 (IL-8) (UniProt P10145 28-99)
T2 construct: also called CXCL8 (R&D Systems)
T2 sequence (looked up): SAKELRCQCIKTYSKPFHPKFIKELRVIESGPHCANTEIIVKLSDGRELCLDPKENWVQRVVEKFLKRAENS

T3: CXCL3 (GROγ) (UniProt P19876 35-107)
T3 construct: also called CXCL3 (R&D Systems)
T3 sequence (looked up): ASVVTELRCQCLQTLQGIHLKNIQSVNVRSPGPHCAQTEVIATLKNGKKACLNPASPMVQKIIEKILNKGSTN

T4: CXCL6 (GCP-2) (UniProt P80162 38-114, limits assumed)
T4 construct: also called CXCL6 (R&D Systems)
T4 sequence (looked up): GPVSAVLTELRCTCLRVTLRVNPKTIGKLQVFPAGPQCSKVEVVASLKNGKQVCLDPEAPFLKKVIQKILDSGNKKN

T5: CXCL5 (ENA-78) (UniProt P42830 37-114, limits assumed)
T5 construct: also called CXCL5 (R&D Systems)
T5 sequence (looked up): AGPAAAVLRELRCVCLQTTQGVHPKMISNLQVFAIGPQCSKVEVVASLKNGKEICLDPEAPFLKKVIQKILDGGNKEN

T6: CXCL10 (IP10) (UniProt P02778 22-98)
T6 construct: also called CXCL10 (R&D Systems)
T6 sequence (looked up): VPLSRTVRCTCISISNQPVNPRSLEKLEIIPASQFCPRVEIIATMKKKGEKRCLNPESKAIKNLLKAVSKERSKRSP

T7: Biotinylated human CXCL13 (Almac) (human, UniProt O43927 23-109, biotin at the most C terminal lysine residue)
T7 construct: also called human CXCL13 biotinylated near the C-terminus (Almac custom synthesis)
T7 sequence: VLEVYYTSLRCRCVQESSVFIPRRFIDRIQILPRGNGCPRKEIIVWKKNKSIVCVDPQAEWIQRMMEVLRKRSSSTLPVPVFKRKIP

B1: Antibody 1 (germlined IgG1) (antibody, V domains shown)
VH: EVQLLESGGGLVQPGGSLRLSCAASGFTFGNSWMSWVRQAPGKGLEWVSAISGSGGSTYYADSVKGRFTISRDNSKNTLYLQMNSLRAEDTAVYYCTRDLPGIAVAGYWGQGTLVTVSS
VL: DTQMTQSPSTLSASVGDRVTITCRASEGIYHWLAWYQQKPGKAPKLLIYKASSLASGVPSRFSGSGSGTEFTLTISSLQPDDFATYYCQQYSNYPLTFGGGTKLEIKR
notes: also called germlined Antibody 1 IgG1; antibody 1 (IgG1)
B2: Antibody 1 (germlined IgG1) Fab (Fab, V domains shown)
VH: B1 VH
VL: B1 VL
notes: also called Size Exclusion Chromatography monomerized Fab fragments of Antibody 1
B3: Human CXCL13 (MEL cell derived), unglycosylated (ligand)
chain: T1 sequence
notes: also called hCXCL13; Unglycosylated hCXCL13
B4: Cynomolgus CXCL13 (MEL cell derived) (ligand)
chain: T1 sequence with S8H, L32S, I52V, M65I, V68M, R72K, L77P
modifications: glycosylated (site not stated)
notes: also called Cyno CXCL13; glycosylated cyno CXCL13

For assay [1], the target named is B4. Briefly: SPR (BIAcore 2000), IgG amine-coupled to a CM3 chip, cyno CXCL13 0.10-0.60 nM flowed; 1:1 Langmuir (n=1, initial data). The method, then: (§1) Antibodies were diluted to 1.0 μg mL-1 in 10 mM acetate buffer pH 4.5. Standard amine linkage chemistry (using amine coupling kit BR-1000-50) was employed to create blank (Fc 1) and 500 RU surfaces of IgG on a CM3 chip (BIAcore, BR-1005-41, lot: 1160100 expiry April '07). The wash solution employed was Glycine pH 2.0.
(§2) Flow of human and cynomolgus CXCL13 over chip surfaces. A dilution series of each CXCL13 (0.10, 0.20, 0.30, 0.40, 0.50 and 0.60 nM) was constructed in HBS-EP buffer and flowed at 30 μL min-1 over all flow cells (association time of 4 minutes, dissociation for 10 minutes and regeneration with two 20 μL pulses of 10 mM Glycine pH 2.0). Blank injections were made with the same buffer. All solutions were prepared and stored in polypropylene.

Assay [2] has as its target B3. Briefly: cell-based or functional assay.
For assay [3], the target named is B4. In words: cell-based or functional assay.
Assay [4] deals with T1, Glycosylated human CXCL13 (MEL cell …). In words: cell-based or functional assay.
Assay [5] concerns the target B3. Briefly: cell-based or functional assay. The source holds these as a separate data set.
The target of assay [6] is B4. In words: cell-based or functional assay.
The target of assay [7] is B3. In words: SPR (BIAcore 2000), IgG amine-coupled to a CM3 chip, human CXCL13 0.10-0.60 nM flowed; 1:1 Langmuir (n=1, initial data). The method, then: as §1, §2
On the technique in general: Surface plasmon resonance follows binding to a sensor surface in real time, without labels.

The target of assay [8] is B3. In words: SPR (BIAcore 2000), IgG captured on Protein G', human CXCL13 flowed; average of the 3 experiments of Table 10a. The source says:
(§3) Standard amine linkage chemistry was employed to create blank and 265 RU surfaces of Protein G′ (Sigma P4689) on Flow cells (Fc) 1 and 2, respectively, of a normalized CM5 chip (BIAcore, BR-1000-14). This Fc 2 Protein G′ surface was used to capture 240-385 RUs Antibody 1 (germlined IgG₁).

Assay [9] has as its target B3. Briefly: cell-based or functional assay. The source holds these as a separate data set.
Assay [10] deals with B4. In words: SPR (BIAcore 2000), IgG captured on Protein G', cyno CXCL13 0.125-40 nM flowed; 1:1 Langmuir with mass transport limitation.
Excerpt: as §3

Assay [11] has as its target B3. Briefly: cell-based or functional assay. The source holds these as a separate data set.
The target of assay [12] is B4. In words: SPR (BIAcore 2000), IgG captured on Protein G', cyno CXCL13 flowed; average of the 2 experiments of Table 11.
Excerpt: as §3

The target of the next assay is T2, CXCL8 (IL-8). Briefly: CXCL13 FLISA competition assay (FMAT, biotinylated human CXCL13 on streptavidin beads). The method, then:
(§4) Samples and reagents were diluted in Assay Buffer (Phosphate Buffered Saline with 0.1% BSA, 0.1% Tween-20 and 0.01% sodium azide). 0.25 nM biotinylated CXCL13 (Almac) was pre-incubated with 0.004% w/v 6-8 μm streptavidin coated polystyrene particles (Spherotec SVP-60-5) for 1 hour at room temperature. The beads were then centrifuged at 3000 rpm for 5 minutes, the supernatant discarded and the pellet resuspended in the original volume of assay buffer to give a 0.004% w/v bead/biotinylated humanCXCL13 mix. 10 μL competitor, assay buffer (total binding control) or excess humanCXCL13 (Non specific binding (NSB) control) was added to a 384 well clear-bottomed non-binding surface assay plate (Costar 3655). 10 μL 5 nM Goat anti-human (H+L) Alexa Fluor®-647 (Invitrogen A21445), 10 μL 0.31 nM Antibody 1 (germlined IgG) and 20 μL Bead/biotinylated CXCL13 mix were then added and the plates incubated for 4 hours at room temperature. FL1 signal was read on the Applied Biosystems Cellular Detection System 8200. Data was analysed using the Wang Goldman algorithm with gating of size 3-12, colour ratio <0.4, minimum count 20.
(§5) Specificity of the germlined Antibody 1 IgG₁ for human CXCL13 (MEL cell derived) over other members of the CXC family of chemokines was determined using the CXCL13 FLISA (Fluorescence linked immunosorbent assay). In this assay the chemokines CXCL3 (R&D Systems), CXCL5 (R&D Systems), CXCL6 (R&D Systems), CXCL8 (R&D Systems), CXCL10 (R&D Systems) and CXCL12 (Peprotech) were tested for competition with biotinylated human CXCL13 (Almac) immobilised on a streptavidin bead for binding to germlined Antibody 1 IgG₁. The biotinylated human CXCL13 antibody-binding interaction was detected with a fluorescently tagged anti-human IgG antibody using Fluorescence Microvolume assay Technology (refer to “Assay Materials and Methods” for details). Standard chemokine names (Zlotnik and Yoshie, 2000) are given together with their most commonly used synonym.

Another assay addresses T3, CXCL3 (GROγ). The description is as above. The method, then:
as §4, §5

Another assay has as its target T4, CXCL6 (GCP-2). The assay is described as above. As for the experimental part:
as §4, §5

A further assay deals with T5, CXCL5 (ENA-78). The assay is described as above. The method, then: as §4, §5
A further assay has as its target T6, CXCL10 (IP10). Described as above. As for the experimental part: as §4, §5
In the next assay the target is T8, CXCL12 (SDF-1α) (UniProt P48061-2 22-89).
T8 construct: also called CXCL12 (Peprotech)
Described as above. The method, then: as §4, §5

Assay [13] deals with B3. In words: SPR (BIAcore 2000), IgG captured on Protein G', human CXCL13 0.25-20 nM flowed; 1:1 Langmuir with mass transport limitation.
Excerpt: as §3

The target in assay [14] is T7, Biotinylated human CXCL13 (Almac). Briefly: SPR (BIAcore 2000), 28 RU biotinylated human CXCL13 captured on streptavidin, Fab 0.065-2.105 nM flowed. The source says:
Standard amine linkage chemistry was employed to create blank (Fc 1) and 228 and 303 RU surfaces of Streptavidin (Perbio/Pierce 21125) on Flow cells (Fc) 2 and 3, respectively, of a normalized CM5 chip (BIAcore, BR-1000-14). This Fc 3 streptavidin surface was used to capture 28 RUs human CXCL13 biotinylated near the C-terminus (Almac custom synthesis).

The target of assay [15] is B1. In words: CXCL13 FLISA competition: soluble chemokine titrated against 0.31 nM Antibody 1 germlined IgG1 binding to bead-bound biotinylated human CXCL13 (n = 1). As for the experimental part: as §4, with “10 μL 5 nM Goat anti-human (H+L) Alexa Fluor®-647 (Invitrogen A21445), 10 μL 0.31 nM Antibody 1 (germlined IgG) and 20 μL Bead/biotinylated CXCL13 mix were then added and the plates incubated for 4 hours at room temperature.” left out
(§6) Specificity of the germlined Antibody 1 IgG₁ for human CXCL13 (MEL cell derived) over other members of the CXC family of chemokines was determined using the CXCL13 FLISA (Fluorescence linked immunosorbent assay). […] The biotinylated human CXCL13 antibody-binding interaction was detected with a fluorescently tagged anti-human IgG antibody using Fluorescence Microvolume assay Technology (refer to “Assay Materials and Methods” for details). […]

Assay [16] deals with B1. In words: CXCL13 FLISA competition: soluble chemokine titrated against Antibody 1 germlined IgG1 binding to bead-bound biotinylated human CXCL13 (n = 1). As for the experimental part: as §4, with “10 μL 5 nM Goat anti-human (H+L) Alexa Fluor®-647 (Invitrogen A21445), 10 μL 0.31 nM Antibody 1 (germlined IgG) and 20 μL Bead/biotinylated CXCL13 mix were then added and the plates incubated for 4 hours at room temperature.” left out
as §6

On to B1, for which the Kd in assay [1] is 0.285 nM; in assay [7], 0.259 nM; in assay [8], 0.0414 nM; in assay [10], 0.033 nM and 0.0291 nM; in [12], 0.0311 nM; in assay [13], 0.0322 nM and 0.0504 nM and 0.0417 nM. The koff in [1] was 0.00104 s⁻¹; in assay [7], 0.000524 s⁻¹; in assay [8], 0.000712 s⁻¹; in assay [10] it was 0.00065 s⁻¹ and 0.000599 s⁻¹; in assay [12], 0.000625 s⁻¹; in assay [13], 0.000684 s⁻¹ and 0.000715 s⁻¹ and 0.000736 s⁻¹. Besides, the kon in assay [1] is 3.63e+06 M⁻¹ s⁻¹; in assay [7], 2.02e+06 M⁻¹ s⁻¹; in [8], 1.77e+07 M⁻¹ s⁻¹; in assay [10], 1.97e+07 M⁻¹ s⁻¹ and 2.05e+07 M⁻¹ s⁻¹; in [12] it was 2.01e+07 M⁻¹ s⁻¹; in assay [13], 2.13e+07 M⁻¹ s⁻¹ and 1.42e+07 M⁻¹ s⁻¹ and 1.76e+07 M⁻¹ s⁻¹. Further, the “IC50, B300.19 hCXCR5 chemotaxis assay (ED80 concentration of CXCL13)” value was 6.22 nM in assay [2], 4.53 nM in assay [3] and 3.94 nM in [4]. Moreover, the figures for the “IC50, LANCE CXCL13 cAMP assay (CHO Gqi5 hCXCR5 cells)” value in [5] and in assay [6] were 1.6 nM and 0.3 nM, respectively. The “IC50, human tonsillar B cell chemotaxis assay (100 nM human non-glycosylated CXCL13, ED80; n=4)” value in assay [9] is 9.59 nM. In addition, the “IC50, CXCL13 mediated CHO Gqi5 hCXCR5 c4.4 Ca2+ release assay (FLIPR)” value in [11] worked out at 10.4 nM. The binding result in the assay with CXCL8 (IL-8), with CXCL3 (GROγ), in the assay with CXCL6 (GCP-2), in the assay with CXCL5 (ENA-78), with CXCL10 (IP10) and in the assay with CXCL12 (SDF-1α) was “no binding (tested: 1 µM)” each time.

As to B2, in assay [14], the Kd came to 0.185 nM, the koff was 0.00166 s⁻¹ and the kon came to 8.98e+06 M⁻¹ s⁻¹.

Molecule B3 had an IC50 in assay [15] of 0.2 nM.

In assay [16], B4 returned an IC50 of 0.8 nM.

These data come from patent US20080199481A1 (AstraZeneca / MedImmune, published 2008).
